pIC50: −log10 of the molar value. Bridge positions count the residues as written; N and C are the ends. Square brackets hold non-standard residues; d marks the D form. * marks the point of attachment. 2Nal = N[C@@H](Cc1ccc2ccccc2c1)C(=O)O; Benzoyl(4-F) = O=C(c1ccc(F)cc1)*; Cit = NC(=O)NCCC[C@H](N)C(=O)O
Key:
[1] = test system: human keratinocytes; conditions: cited from earlier work
[2] = target: CXCR4 (Homo sapiens, UniProt P61073); conditions: read-out: IC50 (binds to CXCR4 with high affinity); cited from earlier work
CXCR4, sequence (P61073 whole entry, species assumed): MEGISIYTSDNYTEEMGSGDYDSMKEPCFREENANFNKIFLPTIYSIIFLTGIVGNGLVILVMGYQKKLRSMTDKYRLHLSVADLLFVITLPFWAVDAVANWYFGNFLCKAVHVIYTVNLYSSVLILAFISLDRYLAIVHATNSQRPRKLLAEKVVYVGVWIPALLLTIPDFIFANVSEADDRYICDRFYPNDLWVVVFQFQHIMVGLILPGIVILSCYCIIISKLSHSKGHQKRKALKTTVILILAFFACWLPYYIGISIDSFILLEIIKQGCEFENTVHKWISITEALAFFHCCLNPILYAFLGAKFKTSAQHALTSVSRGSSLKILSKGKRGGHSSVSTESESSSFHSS

[3] = solubility of BL-8040 powder; format: physicochemical
[4] = test system: normal human hematopoietic cells; conditions: cited from earlier work

For “BL-8040 ({Benzoyl(4-F)}-RR[2Nal]CY[Cit]K[dK]PYR[Cit]CR-NH2; disulfide 4-13 (inferred))”, the effect on viability [1] is listed as “did not affect the viability”, the pIC50 [2] is listed as 8.35 to 9.27 and the solubility ([3]; in 0.45% Sodium Chloride (half normal saline)) is listed as “freely soluble”. The solubility ([3]; in water) was “freely soluble” and the effect on viability [4] was “did not affect the viability”.

— patent US20220072087A1, “SPECIFIC COMBINATION THERAPY FOR TREATMENT OF PANCREATIC CANCER” (BioLineRx Ltd., priority 2019, published 2022)
